Data on 35 substances can be found in publication PMC5790001.

The first assay concerns the target CCR5 (human (endogenous in PM1 cells and MDM)) (UniProt P51681).
Regarding “5p12-RANTES (E. coli) (from UniProt P13501 24-91) (ligand)”, the other was 21 pM.
In turn, “CCL5 6p4 5 m (E. coli) (from UniProt P13501 24-91) (ligand)” yielded an other of 7.9 pM.
In the case of “CCL5 5p12 5 m (E. coli) (from UniProt P13501 24-91) (ligand)”, the other was 6.1 pM.
“wt CCL5 (E. coli) (from UniProt P13501 24-91) (ligand)”: the IC50 (pM) of HIV-1BaL inhibition, acute infection assay in PM1 cells (p24), protein purified from E. coli; blocks HIV-1 entry through CCR5 stood at 810 pM.
The substance “6p4-RANTES (E. coli) (from UniProt P13501 24-91) (ligand)” gave an other of 35 pM.

The next assay has as its target human CCR5 on CHO-CD4-CCR5 cells (human) (UniProt P51681).
On to “CCL5 6p4 5 m (E. coli) (from UniProt P13501 24-91) (ligand)”, for which the percent of surface CCR5 internalized, flow cytometry (mAb 3A9) of CHO-CD4-CCR5 cells treated with 100 nM ligand, 4 h, 37 °C amounted to 70%.
In turn, “wt CCL5 (E. coli) (from UniProt P13501 24-91) (ligand)” yielded a percent of surface CCR5 internalized, flow cytometry (mAb 3A9) of CHO-CD4-CCR5 cells treated with 100 nM ligand, 4 h, 37 °C of 55%.

A further assay has as its target CCR5 (human (endogenous in PM1 cells and MDM)) (UniProt P51681). The source holds these as a separate data set.
In turn, “CCL5 6p4 5 m (total chemical synthesis) (from UniProt P13501 24-91) (ligand)” gave an IC50 of HIV-1BaL inhibition, acute infection assay, protein from total chemical synthesis; blocks HIV-1 entry through CCR5 of 3.9 pM.
Substance “CCL5 5p12 5 m (total chemical synthesis) (from UniProt P13501 24-91) (ligand)” yielded an IC50 of HIV-1BaL inhibition, acute infection assay, protein from total chemical synthesis; blocks HIV-1 entry through CCR5 of 3.9 pM.

Another assay has the same target. The source holds these as a separate data set.
“5p12 Y27W/F28W/E66S (from UniProt P13501 24-91) (ligand)” displayed an other of 7.7 pM.
Regarding “CCL5 F12Y/A13V (from UniProt P13501 24-91) (ligand)”, the other worked out at 179 pM.
Same read-out and setting: under “CCL5 A13P (from UniProt P13501 24-91) (ligand)” stands greater than 1000 pM; under “C1C5 27W/28 W (from UniProt P13501 24-91) (ligand)”, 833 pM; under “C1C5 Y27W (from UniProt P13501 24-91) (ligand)”, 3700 pM.
In turn, “5p12 E66S (from UniProt P13501 24-91) (ligand)” came in with an other of 18 pM.
In the case of “6p4 F12Y/A13V/Y27W/F28W/E66S (CCL5 6p4 5 m) (L. jensenii) (from UniProt P13501 24-91) (ligand)”, the other turned out to be 4.7 pM.
Take “CCL5 F12Y/A13V/Y27W/F28W/E66S (CCL5 5 m) (L. jensenii) (from UniProt P13501 24-91) (ligand)”: the other stood at 34 pM.
“CCL5 A13Y (from UniProt P13501 24-91) (ligand)” gave an other of 78 pM.
“CCL5 F12W (from UniProt P13501 24-91) (ligand)” had an other greater than 6500 pM.
For the substance “CCL5 F12P (from UniProt P13501 24-91) (ligand)”, the other is greater than 1000 pM.
As to “CCL5 F12Y/A13V/Y27W/F28W (CCL5 4 m) (from UniProt P13501 24-91) (ligand)”, the other was 115 pM.
“CCL5 F28W (from UniProt P13501 24-91) (ligand)”: the other stood at 162 pM.
The substance “CCL5 Y27W/F28W (from UniProt P13501 24-91) (ligand)” had an other of 95 pM.
The same measure, in the same setting: under “5p12 F12Y/A13V/Y27W/F28W/E66S (CCL5 5p12 5 m) (L. jensenii) (from UniProt P13501 24-91) (ligand)” stands 5.5 pM; under “CCL5 A13M (from UniProt P13501 24-91) (ligand)”, 256 pM; under “CCL5 Y27W/F28W/E66S (from UniProt P13501 24-91) (ligand)”, 46 pM.
With “5p12 Y27W (from UniProt P13501 24-91) (ligand)”, the other is 17 pM.
The substance “5p12 Y27W/F28W (from UniProt P13501 24-91) (ligand)” came in with an other of 8.2 pM.
As to “5p12 F12Y/A13V (from UniProt P13501 24-91) (ligand)”, the other stood at 30 pM.
Substance “C1C5 E66S (from UniProt P13501 24-91) (ligand)” displayed an other of 1600 pM.
Consider “CCL5 A13W (from UniProt P13501 24-91) (ligand)”, for which the other was 169 pM.
With “CCL5 E66S (from UniProt P13501 24-91) (ligand)”, the other was found to be 190 pM.
Same read-out and setting: under “CCL5 A13V (from UniProt P13501 24-91) (ligand)” stands 86 pM; under “CCL5 A13F (from UniProt P13501 24-91) (ligand)”, 92 pM; under “6p4-RANTES (L. jensenii) (from UniProt P13501 24-91) (ligand)”, 30 pM.
“C1C5 Y27W/F28W/E66S (from UniProt P13501 24-91) (ligand)” had an other of 640 pM.
The substance “CCL5 Y27W (from UniProt P13501 24-91) (ligand)” returned an other of 255 pM.

The target is the same in a further assay. This is another data set of the same source.
The substance “CCL5 5p12 5 m (E. coli) (from UniProt P13501 24-91) (ligand)” had an IC50 of inhibition of HIV-1BaL infection in human monocyte-derived macrophages (MDM); blocks HIV-1 entry through CCR5 of 14.2 pM; an IC50 of inhibition of the primary R5 HIV-1 strain 98IN007 (clade C), acute infection assay in PM1 cells; blocks HIV-1 entry through CCR5 of 7.6 pM; an IC50 of inhibition of the primary R5 HIV-1 strain 5513 (clade B), acute infection assay in PM1 cells; blocks HIV-1 entry through CCR5 of 15.5 pM.
